In PMC9464592 (Nature, 2022):

T1: tag-free WDR59 (human, UniProt Q6PJI9 1-974)
T1 sequence: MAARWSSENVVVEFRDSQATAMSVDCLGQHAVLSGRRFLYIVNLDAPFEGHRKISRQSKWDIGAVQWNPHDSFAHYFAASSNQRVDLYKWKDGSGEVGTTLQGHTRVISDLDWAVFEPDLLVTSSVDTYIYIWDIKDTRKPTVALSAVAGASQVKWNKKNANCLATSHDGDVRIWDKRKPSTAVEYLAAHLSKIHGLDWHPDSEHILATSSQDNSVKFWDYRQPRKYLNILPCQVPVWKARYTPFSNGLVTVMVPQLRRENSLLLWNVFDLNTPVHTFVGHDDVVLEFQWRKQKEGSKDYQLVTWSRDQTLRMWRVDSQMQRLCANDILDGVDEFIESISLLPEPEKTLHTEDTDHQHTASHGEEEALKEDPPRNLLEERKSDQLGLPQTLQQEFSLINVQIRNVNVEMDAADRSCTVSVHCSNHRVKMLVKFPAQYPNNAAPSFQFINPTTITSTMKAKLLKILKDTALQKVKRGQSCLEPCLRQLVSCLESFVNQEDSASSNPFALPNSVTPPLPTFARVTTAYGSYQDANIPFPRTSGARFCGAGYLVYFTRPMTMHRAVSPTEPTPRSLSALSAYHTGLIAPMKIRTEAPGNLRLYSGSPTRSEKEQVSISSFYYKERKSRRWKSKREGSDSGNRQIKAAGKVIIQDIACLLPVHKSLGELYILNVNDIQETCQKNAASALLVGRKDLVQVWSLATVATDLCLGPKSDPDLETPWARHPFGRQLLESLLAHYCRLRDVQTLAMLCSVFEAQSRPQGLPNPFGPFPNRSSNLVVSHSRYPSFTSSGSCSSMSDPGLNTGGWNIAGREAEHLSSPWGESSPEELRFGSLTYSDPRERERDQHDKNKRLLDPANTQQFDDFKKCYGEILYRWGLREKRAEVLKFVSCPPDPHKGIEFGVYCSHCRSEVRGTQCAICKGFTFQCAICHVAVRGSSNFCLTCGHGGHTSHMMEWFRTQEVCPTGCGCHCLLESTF

B1: WDR24 ∆CTD (domain or fragment, human, UniProt Q96S15 1-700, looked up)
chain: MEKMSRVTTALGGSVLTGRTMHCHLDAPANAISVCRDAAQVVVAGRSIFKIYAIEEEQFVEKLNLRVGRKPSLNLSCADVVWHQMDENLLATAATNGVVVTWNLGRPSRNKQDQLFTEHKRTVNKVCFHPTEAHVLLSGSQDGFMKCFDLRRKDSVSTFSGQSESVRDVQFSIRDYFTFASTFENGNVQLWDIRRPDRCERMFTAHNGPVFCCDWHPEDRGWLATGGRDKMVKVWDMTTHRAKEMHCVQTIASVARVKWRPECRHHLATCSMMVDHNIYVWDVRRPFVPAAMFEEHRDVTTGIAWRHPHDPSFLLSGSKDSSLCQHLFRDASQPVERANPEGLCYGLFGDLAFAAKESLVAAESGRKPYTGDRRHPIFFKRKLDPAEPFAGLASSALSVFETEPGGGGMRWFVDTAERYALAGRPLAELCDHNAKVARELGRNQVAQTWTMLRIIYCSPGLVPTANLNHSVGKGGSCGLPLMNSFNLKDMAPGLGSETRLDRSKGDARSDTVLLDSSATLITNEDNEETEGSDVPADYLLGDVEGEEDELYLLDPEHAHPEDPECVLPQEAFPLRHEIVDTPPGPEHLQDKADSPHVSGSEADVASLAPVDSSFSLLSVSHALYDSRLPPDFFGVLVRDMLHFYAEQGDVQMAVSVLIVLGERVRKDIDEQTQEHWYTSYIDLLQRFRLWNVSNEVVKLS
B2: MIOS A560E (natural protein, human)
chain: MSGTKPDILWAPHHVDRFVVCDSELSLYHVESTVNSELKAGSLRLSEDSAATLLSINSDTPYMKCVAWYLNYDPECLLAVGQANGRVVLTSLGQDHNSKFKDLIGKEFVPKHARQCNTLAWNPLDSNWLAAGLDKHRADFSVLIWDICSKYTPDIVPMEKVKLSAGETETTLLVTKPLYELGQNDACLSLCWLPRDQKLLLAGMHRNLAIFDLRNTSQKMFVNTKAVQGVTVDPYFHDRVASFYEGQVAIWDLRKFEKPVLTLTEQPKPLTKVAWCPTRTGLLATLTRDSNIIRLYDMQHTPTPIGDETEPTIIERSVQPCDNYIASFAWHPTSQNRMIVVTPNRTMSDFTVFERISLAWSPITSLMWACGRHLYECTEEENDNSLEKDIATKMRLRALSRYGLDTEQVWRNHILAGNEDPQLKSLWYTLHFMKQYTEDMDQKSPGNKGSLVYAGIKSIVKSSLGMVESSRHNWSGLDKQSDIQNLNEERILALQLCGWIKKGTDVDVGPFLNSLVQEGEWERAAAVALFNLDIRRAIQILNEGASSEKGDLNLNVVAMELSGYTDEKNSLWREMCSTLRLQLNNPYLCVMFAFLTSETGSYDGVLYENKVAVRDRVAFACKFLSDTQLNRYIEKLTNEMKEAGNLEGILLTGLTKDGVDLMESYVDRTGDVQTASYCMLQGSPLDVLKDERVQYWIENYRNLLDAWRFWHKRAEFDIHRSKLDPSSKPLAQVFVSCNFCGKSISYSCSAVPHQGRGFSQYGVSGSPTKSKVTSCPGCRKPLPRCALCLINMGTPVSSCPGGTKSDEKVDLSKDKKLAQFNNWFTWCHNCRHGGHAGHMLSWFRDHAECPVSACTCKCMQLDTTGNLVPAETVQP
B3: N-terminally Flag-tagged MIOS (natural protein, human)
chain: MSGTKPDILWAPHHVDRFVVCDSELSLYHVESTVNSELKAGSLRLSEDSAATLLSINSDTPYMKCVAWYLNYDPECLLAVGQANGRVVLTSLGQDHNSKFKDLIGKEFVPKHARQCNTLAWNPLDSNWLAAGLDKHRADFSVLIWDICSKYTPDIVPMEKVKLSAGETETTLLVTKPLYELGQNDACLSLCWLPRDQKLLLAGMHRNLAIFDLRNTSQKMFVNTKAVQGVTVDPYFHDRVASFYEGQVAIWDLRKFEKPVLTLTEQPKPLTKVAWCPTRTGLLATLTRDSNIIRLYDMQHTPTPIGDETEPTIIERSVQPCDNYIASFAWHPTSQNRMIVVTPNRTMSDFTVFERISLAWSPITSLMWACGRHLYECTEEENDNSLEKDIATKMRLRALSRYGLDTEQVWRNHILAGNEDPQLKSLWYTLHFMKQYTEDMDQKSPGNKGSLVYAGIKSIVKSSLGMVESSRHNWSGLDKQSDIQNLNEERILALQLCGWIKKGTDVDVGPFLNSLVQEGEWERAAAVALFNLDIRRAIQILNEGASSEKGDLNLNVVAMALSGYTDEKNSLWREMCSTLRLQLNNPYLCVMFAFLTSETGSYDGVLYENKVAVRDRVAFACKFLSDTQLNRYIEKLTNEMKEAGNLEGILLTGLTKDGVDLMESYVDRTGDVQTASYCMLQGSPLDVLKDERVQYWIENYRNLLDAWRFWHKRAEFDIHRSKLDPSSKPLAQVFVSCNFCGKSISYSCSAVPHQGRGFSQYGVSGSPTKSKVTSCPGCRKPLPRCALCLINMGTPVSSCPGGTKSDEKVDLSKDKKLAQFNNWFTWCHNCRHGGHAGHMLSWFRDHAECPVSACTCKCMQLDTTGNLVPAETVQP

What was measured:
[1] = target: T1, tag-free WDR59; assay: SEC
[2] = target: T1, tag-free WDR59; assay: cryo-EM structure

Binder | binding result [1] | binding result [2]
B1 | binds | –
B2 | binds | –
B3 | – | binds
